T1: Cytochrome c oxidase (Bos taurus, UniProt P68530)
T1 chain: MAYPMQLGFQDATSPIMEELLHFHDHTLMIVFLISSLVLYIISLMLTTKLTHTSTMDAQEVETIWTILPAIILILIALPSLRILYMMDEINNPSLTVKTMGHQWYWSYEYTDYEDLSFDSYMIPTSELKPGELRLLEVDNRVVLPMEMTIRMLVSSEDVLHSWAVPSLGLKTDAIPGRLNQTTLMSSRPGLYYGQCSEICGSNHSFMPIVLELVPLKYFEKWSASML

T2: Cytochrome c oxidase (Bos taurus, UniProt P68530)
T2 chain: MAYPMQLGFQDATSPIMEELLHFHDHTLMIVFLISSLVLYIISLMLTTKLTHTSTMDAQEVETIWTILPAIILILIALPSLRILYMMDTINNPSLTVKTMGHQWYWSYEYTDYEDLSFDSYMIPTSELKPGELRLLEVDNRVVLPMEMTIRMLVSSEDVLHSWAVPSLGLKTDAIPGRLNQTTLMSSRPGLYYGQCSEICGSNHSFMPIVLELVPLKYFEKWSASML


Legend:
Cytochrome c oxidase [1] = molecular target: T1, Cytochrome c oxidase; assay: analytical ultracentrifugation
Cytochrome c oxidase [2] = molecular target: T1, Cytochrome c oxidase; assay: laser flash photolysis
Cytochrome c oxidase [3] = molecular target: T2, Cytochrome c oxidase; assay: analytical ultracentrifugation

Kd (Cytochrome c oxidase [1]) [µM]	Kd (Cytochrome c oxidase [2]) [µM]	Kd (Cytochrome c oxidase [3]) [µM]	Binder
28.4	–	–	Cytochrome c (protein) not shown [Cytochrome c, listing 1 of 2 here]
–	8	–	Ru-39-Cytochrome c (protein, (dimethylbipyridine)(bisbipyridine)ruthenium at Cys-39) not shown
4.7	–	2.1	Cytochrome c (protein) not shown [Cytochrome c, listing 2 of 2 here]

— publication PMC9777161 (2022)
